Data from patent US9724388B2, “FGF-18 compound dosing regimen” (MERCK PATENT GMBH, priority 2014, dated 2017).
“Also recorded” adds a separate entry of the source.

Key:
[1] = tested on: ACLT+tMx model of instability-induced OA; experiment: ACLT+tMx rat OA model, neo-formation of cartilaginous tissue (Safranin-O quantification); assay type: in vivo; conditions: for dose at which dose-dependent neo-formation of cartilaginous tissue became significant, medial tibia: FIG. 2b
Procedure: The anterior cruciate ligament transection with resection of the medial meniscus (ACLT+tMx) model of instability-induced OA was performed in male Lewis rats 10-15 weeks of age. Briefly, under anesthesia with isoflurane, the joint capsule of the right knee of each rat was opened, the anterior cruciate and meniscus fixating ligaments were sharply transected, the meniscus was removed and the capsule, muscles and skin closed by sutures. Animals were randomly allocated into 10 groups of n=10 each. The following dosages were investigated: 0, 0.3, 1, 3 and 10 μg per intra-articular injection. Groups 1-5 received one cycle of three single injections at weekly intervals, group 6-10 three single injections at monthly intervals. Intra-articular treatment was started three weeks post-surgery. At this time pathophysiological changes are already mainifest, e.g., cartilage matrix loss. Animals were euthanized 17 weeks after surgery and joints were investigated.

[2] = tested on: Primary articular porcine chondrocytes; experiment: Porcine chondrocyte proliferation with or without IL1α challenge; assay type: cell-based, pig; conditions: 100 ng/mL, 8 days
Procedure: Porcine chondrocytes were isolated from the cartilage of a femoral head of a pig hip (pigs were approximately one year old). After dissection of the joints, the cartilage was harvested and digested 45 minutes with collagenase 0.25% (1/10 dilution of collagenase NBG4 2.5% in HAM's F12) at room temperature. The loosened cells were discarded and the cartilage further digested overnight with collagenase 0.1% (1/25 dilution of collagenase NBG4 2.5% in HAM's F12) at 37° C. to extract the chondrocytes. For this study, the chondrocytes were cultured in monolayer.
Primary articular porcine chondrocytes were stimulated or not with 10 ng/mL IL1α and were either treated immediately or 6 hours later with anakinra 100 ng/mL and/or trFGF-18 100 ng/mL. Each condition was performed in 4 or 6-plicates. As a control, cells were also cultured with anakinra alone, trFGF-18 alone or in the absence of any treatment (medium).
Pre-culture: After cell isolation porcine chondrocytes were inoculated at 20,000 cells/cm^2 and cultivated for one week in complete HAM's F12. Cells were then harvested with accutase, counted and used as described below.
For cells treated directly with anakinra: Chondrocytes were inoculated in a 24-well plate at 15,000 cells/well in 0.5 mL of complete HAM's F12. Then 0.25 mL of trFGF-18 400 ng/mL and/or 0.25 mL of anakinra 400 ng/mL were added to the cells. In the challenged samples, 10 μL of IL1α at 1,000 ng/mL were also added to the cells. trFGF-18, anakinra and IL1α were all diluted in complete HAM's F12. The final volume in the culture well was adjusted at 1 mL with complete HAM's F12. Final concentrations were 10 ng/mL IL1α, 100 ng/mL trFGF-18 and 100 ng/mL anakinra and the total culture time was eight days. A complete medium change was performed after four days. N=4.
For cells treated with anakinra and trFGF-18 6 hours after the IL1α challenge: Chondrocytes were inoculated in a 24-well plate at 15,000 cells/well in 1 mL of complete HAM's F12 containing or not containing IL1α 10 ng/mL. After 6 hours the medium was removed and replaced with 0.25 mL trFGF-18 400 ng/mL and/or 0.25 mL of anakinra 400 ng/mL. In the challenged samples, 0.25 mL of IL1α at 40 ng/mL was also added to the cells. trFGF-18, anakinra and IL1α were all diluted in complete HAM's F12. The final volume in the culture well was adjusted at 1 mL with complete HAM's F12. Final concentrations were 10 ng/mL IL1α, 100 ng/mL trFGF-18 and 100 ng/mL anakinra and the total culture time was eight days. A complete medium change was performed after four days. N=6.
After eight days of culture, cells were harvested with accutase and resulting cell suspensions were analyzed for cell concentration and cell viability with a ViCell™ cell analyzer (from Beckman Coulter). Statistical analysis consisted in a 1-way ANOVA followed by a Dunnett post-hoc analysis.

[3] = tested on: rat model of OA (ACLT with tMx); experiment: ACLT+tMx rat OA model, intracycle dosing frequencies of sprifermin; assay type: in vivo
Procedure: The goal of this study was to evaluate the effect of different intracycle dosing frequencies of the same total dosage (3×1 μg) of sprifermin on cartilage volume in a rat model of OA. The anterior cruciate ligament transection (ACLT) with resection of the medial meniscus (tMx) was performed as disclosed in example 1. Joints from male Lister Hooded Rats (200-260 g, Charles River) were used in this study. Animals were euthanized 18 weeks post-surgery.
The changes in the joint are related to clinical assessments in OA (cartilage loss, osteophytes, subchondral sclerosis). One μg sprifermin in saline was injected three times either weekly, every 2nd, every 3rd, every 4th or every 5th week and compared to appropriate vehicle groups. Body weight, joint diameters and clinical health scores were investigated weekly.

[4] = in vivo; cited from earlier work

B1: trFGF-18: recombinant truncated form of human FGF-18 (170 amino acids, SEQ ID NO: 2), produced in E. coli (protein)
chain: MEENVDFRIHVENQTRARDDVSRKQLRLYQLYSRTSGKHIQVLGRRISARGEDGDKYAQLLVETDTFGSQVRIKGKETEFYLCMNRKGKLVGKPDGTSKECVFIEKVLENNYTALMSAKYSGWYVGFTKKGRPRKGPKTRENQQDVHFMKRYPKGQPELQKPFKYTTVTK
modifications: Recombinant truncated FGF-18(trFGF-18)
dose at which dose-dependent neo-formation of cartilaginous tissue became significant, lateral tibia ([1]; independently of the injection regimen (3 i.a. injections weekly or monthly), FIG. 2a): 1 μg/joint | dose at which dose-dependent neo-formation of cartilaginous tissue became significant, medial tibia ([1]; one monthly regimen): 0.3 μg/joint | dose at which dose-dependent neo-formation of cartilaginous tissue became significant, medial tibia ([1]; one weekly regimen): 1 μg/joint | stimulation of proliferation vs control (medium, IL1α 10 ng/mL) ([2]; first experiment (direct treatment)): 2.38 fold | stimulation of proliferation vs control (medium, IL1α 10 ng/mL) ([2]; second experiment (6-hour delay)): 2.44 fold | increase in cell numbers vs control (medium, no IL1α) ([2]; first experiment (direct treatment, FIG. 6A)): 11.25 fold | increase in cell numbers vs control (medium, no IL1α) ([2]; second experiment (6-hour delay, FIG. 6B)): 7.75 fold | cartilage volume on medial tibia (FIG. 9) ([3]; 1 μg/joint once every 3rd week, three injections, listed as rhFGF-18): pharmacologically meaningful and statistically significant difference over saline; also recorded: most beneficial structural outcome | body weight gain ([3]; 3 x 1 μg intra-articular injections): no influence | cartilage denudation (stereology) ([3]; 3 x 1 μg/joint): prevented more or less complete cartilage denudation | cartilage volume ([3]; all groups treated with rhFGF-18): higher cartilage volume values compared to placebo | AUC of joint diameters ([3]; injected every fifth week): the same as with saline injections | joint diameters, differences between regimens ([3]; injections every 2nd, 3rd or 4th week): No significant differences | joint diameters (AUC, FIG. 8) ([3]; injections in week 3, 4 and 5 vs injections in week 3, 8 and 13): significantly higher | half-life in the joint [4]: less than 24 hours
